Test results reported in patent US20220259278A1 (PROGEN, published 2022).
Each block holds one binder with its values, some of them ahead of it.

What was measured:
Fc gamma receptor I = target: T1, Fc gamma receptor I (UniProt P12314 16-288, limits assumed); test: BLI, fitting view, three repeats
T1 construct: also called FcγRI

Fc gamma receptor IIIa = target: T2, Fc gamma receptor IIIa (UniProt P08637 17-208); test: BLI, fitting view, three repeats
T2 construct: also called FcγRIIIa

human CD154 = target: T3, human CD154 (human, UniProt P29965 113-261, limits assumed); test: BLI (Octet K2), CD154 amine-coupled to AR2G sensor, antibody in solution; average
T3 construct: Coupled to amine reactive (AR2G) biosensors at 5 ug/ml; also called hCD154; CD40L
T3 sequence (looked up): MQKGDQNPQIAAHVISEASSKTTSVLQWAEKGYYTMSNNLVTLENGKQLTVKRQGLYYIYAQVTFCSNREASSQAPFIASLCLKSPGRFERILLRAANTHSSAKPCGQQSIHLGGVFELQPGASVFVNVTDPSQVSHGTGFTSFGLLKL
Method: To this end, the present inventors first attached CD154 protein to 96-well plates using Dip and Read™ Amine Reactive 2nd Generation (AR2G) Reagent Kit (forteBio, Cat No. 18-5092). Specifically, after dispensing 200 μl of DW in a 96-well plate, an amine biosensor included in the kit was inserted and hydrated for 10 minutes. Subsequently, after dispensing 200 μl of DW was additionally to the plate, EDC:NHS was mixed in a 1:1 ratio in a volume corresponding to 1/20 of the required sample, then diluted in DW, and 200 μl was dispensed into the 96-well plate. Subsequently, CD154 protein was diluted to 5 μg/ml in 10 mM acetate solution (pH 6.0), and 200 μl was dispensed into the 96-well plate. Then, 200 μl of 1 M ethanolamine was added to the 96-well plate, and the biosensor plate and the sample plate were inserted into Octet® K2 BLI analyzer and signals were measured. After the measurement was completed, 200 μl of the 1× Kinetics buffer was added to the sample plate, and then a baseline was determined.

T2 sequence (P08637 17-208 limits assumed): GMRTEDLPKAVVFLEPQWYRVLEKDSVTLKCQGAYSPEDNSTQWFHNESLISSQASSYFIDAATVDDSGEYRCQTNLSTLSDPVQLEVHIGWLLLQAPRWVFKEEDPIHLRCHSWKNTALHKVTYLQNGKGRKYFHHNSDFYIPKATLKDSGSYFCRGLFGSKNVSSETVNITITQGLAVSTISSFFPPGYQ
T1 sequence (P12314 16-288 limits assumed): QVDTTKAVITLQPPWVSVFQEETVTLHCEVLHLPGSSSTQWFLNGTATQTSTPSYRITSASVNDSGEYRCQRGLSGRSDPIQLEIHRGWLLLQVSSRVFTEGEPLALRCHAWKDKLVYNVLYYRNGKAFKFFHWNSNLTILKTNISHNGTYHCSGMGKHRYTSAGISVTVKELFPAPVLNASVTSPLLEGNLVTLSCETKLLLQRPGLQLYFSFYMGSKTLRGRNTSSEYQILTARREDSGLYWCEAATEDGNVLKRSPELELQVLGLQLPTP

binding result (Fc gamma receptor I): no binding
binding result (Fc gamma receptor IIIa): no binding
B1: GLP-1E-Fc fusion protein PG-11 (Fc fusion)
chain: HGEGTFTSDVSSYLEGQAAKEFIAWLVKGGPSSGAPPPSGGGGSGGGGSGGGGSEKEKEEQEERTHTCPPCPSHTQPLGVFLFPPKPKDQLMISRTPEVTCVVVDVSQEDPEVQFNWYVDGVEVHNAKTKPREEQFNSTYRVVSVLTVLHQDWLNGKEYKCKVSNKGLPSSIEKTISKAKGQPREPQVYTLPPSQEEMTKNQVSLTCLVKGFYPSDIAVEWESNGQPENNYKTTPPVLDSDGSFFLYSRLTVDKSRWQEGNVFSCSVLHEALHNHYTQKSLSLSLGK
notes: 6 entered; also called modified Fc region protein; fusion protein containing NTIG

koff (human CD154): < 1e-07 s⁻¹
kon (human CD154): 510000 M⁻¹ s⁻¹
B2: chimeric anti-CD154 antibody C10M (antibody, V domains shown, not shown: a dimerising Fc or GST)
VH: EVQLQQSGSELVKPGASVKLSCKASGYIFTSYYMYWVKQRPGQGLEWIGEINPSNGDTNFNEKFKSKATLTVDKSSSTAYMQLISLTSEDSAVYYCTRSDGRNDMDSWGQGTTVTVSS
VL: DIQLTQSPASLAVSLGQRATISCRASQRVSSSTYSYMHWYQQKPGQPPKLLIKYASNLESGVPARFSGSGSGTDFTLNIHPVEEEDSATYYCQHSWEIPPTFGGGTKLEIKR
notes: Mouse-derived anti-CD154 Fab with a mutant human IgG1 Fc region; also called anti-CD154 chimeric antibody

koff (human CD154): < 1e-07 s⁻¹
kon (human CD154): 807000 M⁻¹ s⁻¹
B3: chimeric hybrid antibody PG-400-1 (antibody, V domains shown)
VH: B2 VH
VL: B2 VL
